The results in this text go back to publication doi:10.1101/2024.12.01.626218.

The assay concerns the target TTF2 1-100 (UniProt Q5NC05). Description: isothermal titration calorimetry. As to conditions: reference: unphosphorylated TRAIP 313-329 peptide; sites T325.

As to “TRAIP 313-329 (from UniProt Q8VIG6) pT325 TRAIP 313-329 peptide”, the “binding against the reference” value is “gained”.
